According to publication PMC3759425, “Insights into the Cross-Immunity Mechanism within Effector Families of Bacteria Type VI Secretion System from the Structure of StTae4-EcTai4 Complex” (PLoS ONE, 2013):

B1: EcTai4 (type VI amidase immunity 4 from Enterobacter cloacae), residues 19-117 (domain or fragment)
chain: QTLPDISTFSQQQIFENWVQNRCIGKIADSKSLKEDADASAAAWLEASNLPAENFEKADEVIVSLLKQKVGGTEPGHYQILKCTLIANSDAIRPLKSSK
notes: Tai4, type VI amidase immunity 4, E. cloacae, residues 19-117 without the N-terminal 18-residue signal peptide, amplified from genomic DNA; pET21a; Se-Met-labelled protein was used for the crystal structure; The construct of the His-EcTai4 of the pull-down is not described on its own; also called His-EcTai4; His-tag EcTai4; source: E. coli BL21 (DE3), co-expressed with StTae4, purified (crystal, …)
B2: StTae4 (type VI amidase effector 4 from Salmonella typhimurium) (enzyme)
chain: MNRPSFNEAWLAFRKVNHSVADVGSIIGGNVGKNITGGYFQNACPIRMSYVLNATGFPIARNSPYAKVSGADNKFYIYRVNDMIDYLTHTMGKPDLIVNNPKQSDFIGKKGIIVVKGHGWSNARGHVTLWNGSICSDQCHLLNDPDNGPFVPEVGTLWILP
notes: Tae4, type VI amidase effector 4, S. Typhimurium, full length, amplified from genomic DNA; cloned into NcoI/XhoI of pET28at-plus (introduces an N-terminal TEV cleavage site); Se-Met-labelled protein was used for the crystal structure; The vector adds an N-terminal TEV cleavage site; the pull-down methods call the effectors 'native effector proteins'; source: E. coli BL21 (DE3), co-expressed with …

How the values were obtained:
[1] = target: the molecule itself; test: SAXS; purified complex in solution at 1, 3 and 5 mg/ml; theoretical curve of one tetramer of the crystal fitted to the experimental data, discrepancy 1.625
[2] = target: B1; test: as above; details: both partners purified

Row | Binder | stoichiometry N [1] | stoichiometry N [2]
1 | B1 | 2 | –
2 | B2 | – | 2 Tae4 molecules per Tai4 homodimer
